From patent US20170233490A1 (Hoffmann-La Roche, published 2017)

T1: TgSlyDΔIF
T1 construct: scaffold without hairpin insert, negative control
T1 chain: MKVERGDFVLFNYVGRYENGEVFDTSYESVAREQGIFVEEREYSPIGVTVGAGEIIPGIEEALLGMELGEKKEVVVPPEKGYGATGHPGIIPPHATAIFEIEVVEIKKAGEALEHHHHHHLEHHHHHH

T2: TtSlyDcas
T2 construct: scaffold without hairpin insert, negative control
T2 chain: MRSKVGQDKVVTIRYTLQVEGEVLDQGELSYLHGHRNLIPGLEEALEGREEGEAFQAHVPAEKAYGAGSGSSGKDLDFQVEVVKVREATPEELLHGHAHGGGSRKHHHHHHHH

T3: TgSlyDcys-Her3
T3 chain: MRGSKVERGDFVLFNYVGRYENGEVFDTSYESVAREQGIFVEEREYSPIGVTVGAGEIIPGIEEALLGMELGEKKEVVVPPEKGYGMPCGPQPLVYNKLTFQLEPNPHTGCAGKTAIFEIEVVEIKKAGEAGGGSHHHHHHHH

T4: TtSlyDcys-Her3
T4 chain: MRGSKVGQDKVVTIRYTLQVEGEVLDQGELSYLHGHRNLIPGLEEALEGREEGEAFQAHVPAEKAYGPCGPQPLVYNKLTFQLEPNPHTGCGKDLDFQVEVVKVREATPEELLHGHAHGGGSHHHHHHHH

T5: TgSlyDser-Her3
T5 chain: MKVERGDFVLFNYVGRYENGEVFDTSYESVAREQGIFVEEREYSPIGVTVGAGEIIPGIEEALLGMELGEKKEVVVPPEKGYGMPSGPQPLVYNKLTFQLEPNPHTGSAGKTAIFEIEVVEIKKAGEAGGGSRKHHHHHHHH

T6: human HER4 Extracellular Domain (ECD) (human, UniProt Q15303 26-651)
T6 construct: also called Her4 ECD; HER4-ECD
T6 sequence: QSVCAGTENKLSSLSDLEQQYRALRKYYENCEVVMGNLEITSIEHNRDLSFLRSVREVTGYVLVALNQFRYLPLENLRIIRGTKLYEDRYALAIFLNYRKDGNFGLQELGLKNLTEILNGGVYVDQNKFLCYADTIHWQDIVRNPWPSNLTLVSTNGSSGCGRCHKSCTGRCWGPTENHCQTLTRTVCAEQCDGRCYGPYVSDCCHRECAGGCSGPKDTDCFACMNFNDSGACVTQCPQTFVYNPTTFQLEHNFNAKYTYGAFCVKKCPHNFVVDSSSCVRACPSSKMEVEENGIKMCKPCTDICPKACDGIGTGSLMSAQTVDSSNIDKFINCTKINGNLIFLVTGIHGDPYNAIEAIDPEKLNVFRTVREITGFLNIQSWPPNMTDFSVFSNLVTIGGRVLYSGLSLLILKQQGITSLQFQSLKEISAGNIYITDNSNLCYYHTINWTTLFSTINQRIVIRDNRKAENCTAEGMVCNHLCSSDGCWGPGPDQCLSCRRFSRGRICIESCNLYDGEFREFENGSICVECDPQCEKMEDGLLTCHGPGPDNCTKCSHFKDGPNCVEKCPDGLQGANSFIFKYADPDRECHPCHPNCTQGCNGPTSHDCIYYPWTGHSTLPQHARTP

T7: TtSlyDcas-Her3
T7 chain: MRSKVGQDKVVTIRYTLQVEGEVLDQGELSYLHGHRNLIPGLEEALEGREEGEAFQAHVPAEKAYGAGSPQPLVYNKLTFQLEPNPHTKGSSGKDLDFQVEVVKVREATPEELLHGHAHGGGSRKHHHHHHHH


What was measured:
TgSlyDΔIF [1] = molecular target: T1, TgSlyDΔIF; assay: ELISA, coated antigen 0.5 µg/ml, hybridoma supernatant
Experimental: (§1) For the ELISA the screening an antigen down format was used. […] Hybridoma Supernatant was added to the plates and incubated for 1 h at room temperature. Bound antibody was detected with a HRP-labeled F(ab′)₂ goat anti-mouse Fcγ (Dianova) and ABTS (Roche) was used as a HRP-substrate.

TtSlyDcas [2] = molecular target: T2, TtSlyDcas; assay: as above
Experimental: as §1

[3] = molecular target: T8, human HER2 Extracellular Domain (ECD) (human, UniProt P04626 23-652); assay: ELISA, coated antigen
T8 construct: human recombinant, 69.6 kDa; also called Her2 ECD; HER2_ECD
Experimental: as §1
(§2) As negative controls the scaffold proteins TtSlyDcas and TgSlyDΔIF were used.

TgSlyDcys-Her3 = molecular target: T3, TgSlyDcys-Her3; assay: ELISA, coated antigen
Experimental: as §1, §2

[4] = molecular target: T9, human HER3 Extracellular Domain (ECD) (human, UniProt P21860 20-643); assay: ELISA, coated antigen
T9 construct: human recombinant, 68 kDa; 'closed' conformation without ligand; also called Her3 ECD; Her-3 ECD
Experimental: as §1, §2

TtSlyDcys-Her3 = molecular target: T4, TtSlyDcys-Her3; assay: ELISA, coated antigen
Experimental: as §1, §2

TgSlyDser-Her3 = molecular target: T5, TgSlyDser-Her3; assay: ELISA, coated antigen
Experimental: as §1, §2

[5] = molecular target: T10, human HER1 Extracellular Domain (ECD) (human, UniProt P00533 25-645); assay: ELISA, coated antigen
T10 construct: also called Her1 ECD; HER1-ECD
Experimental: as §1, §2

TgSlyDΔIF [6] = molecular target: T1, TgSlyDΔIF; assay: ELISA, coated antigen
Experimental: as §1, §2

[7] = molecular target: T6, human HER4 Extracellular Domain (ECD); assay: ELISA, coated antigen
Experimental: as §1, §2

TtSlyDcas [8] = molecular target: T2, TtSlyDcas; assay: ELISA, coated antigen
Experimental: as §1, §2

TtSlyDcas-Her3 = molecular target: T7, TtSlyDcas-Her3; assay: ELISA, coated antigen
Experimental: as §1, §2

[9] = molecular target: T8, human HER2 Extracellular Domain (ECD); assay: ELISA, coated antigen, hybridoma supernatant
Experimental: as §1

[10] = molecular target: T10, human HER1 Extracellular Domain (ECD); assay: ELISA, coated antigen, hybridoma supernatant
Experimental: as §1

[11] = molecular target: T11, human HER2 (full length, on cells) (human, UniProt P04626 23-1255); assay: IHC (Ventana Benchmark XT) on formalin-fixed, paraffin-embedded HEK293 cells transiently transfected with full length HER2
T11 construct: HEK293 cells transfected with full length HER2 (IHC); MCF-7 cells (co-immunoprecipitation)
Experimental: (§3) All selected clones were tested for reactivity and specificity in IHC. […] After an additional fixation in formalin overnight the Agarose blocks were embedded in paraffin. Untransfected HEK293 cells were used as negative controls and treated accordingly to the transfected cells. After paraffin embedding 3 μm thin sections were prepared using a microtome. The sections were mounted on glass microscopy slides and dried for 2 h. All further steps of the immunohistochemical staining procedure were carried out using a Ventana Benchmark XT. The slides were dewaxed and antigen retrieval was performed by applying heat for 1 hour. For antigen retrieval the Ventana buffer CC1 was used. The antibodies were used at a concentration of 1 μg/ml. For the detection of bound antibody the Ventana UltraView detection kit was used.

[12] = molecular target: T12, human HER1 (full length, on cells) (human, UniProt P00533 25-1210); assay: IHC (Ventana Benchmark XT) on formalin-fixed, paraffin-embedded HEK293 cells transiently transfected with full length HER1
T12 construct: HEK293 cells transfected with full length HER1, fixed and embedded (IHC); also called EGFR
Experimental: as §3

HER3 ECD-HRG complex [13] = molecular target: T13, HER3 ECD-HRG complex (human, UniProt P21860 20-643); assay: SPR Biacore 3000, antibody captured via anti-human Fc, 25 C
T13 construct: HER3 ECD preincubated with a 3- to 6-fold molar excess of Heregulin ('open' conformation); biotinylated Her3-ECD in the ribosome display; also called HER3-ECD/HRG1β
Experimental: (§4) A CM5 series sensor was mounted into the system and was normalized in HBS-ET buffer (10 mM HEPES pH 7.4, 150 mM NaCl, 3 mM EDTA, 0.005% w/v Tween 20) according to the manufacturer's instructions. The sample buffer was the system buffer supplemented with 1 mg/ml CMD (Carboxymethyldextran, Sigma #86524). The system operated at 25° C. 10000 RU monoclonal murine anti-human Fc antibody (MAK<h-Fc> M-R10Z8 E9, Roche Diagnostics GmbH, Penzberg, Germany) were immobilized using EDC/NHS chemistry on all four flow cells. The sensor was deactivated using 1M ethanolamine.

HER3 ECD-HRG complex [14] = molecular target: T13, HER3 ECD-HRG complex; assay: SPR Biacore 3000, sequential injection: HER2-ECD first, then HER3-ECD/HRG1β, 270 nM each
Experimental: as §4
(§5) The association and dissociation rates were monitored for 10 minutes and 8 minutes, respectively.

HER3 ECD-HRG complex [15] = molecular target: T13, HER3 ECD-HRG complex; assay: SPR Biacore 3000, sequential injection: HER3-ECD/HRG1β first, then HER2-ECD, 270 nM each
Experimental: as §4, §5

Binder | binding result (TgSlyDΔIF [1]) | binding result (TtSlyDcas [2]) | ELISA signal [3] | ELISA signal (TgSlyDcys-Her3) | ELISA signal [4] | ELISA signal (TtSlyDcys-Her3) | ELISA signal (TgSlyDser-Her3) | ELISA signal [5] | ELISA signal (TgSlyDΔIF [6]) | ELISA signal [7] | ELISA signal (TtSlyDcas [8]) | ELISA signal (TtSlyDcas-Her3) | binding result [9] | binding result [10] | binding result [11] | binding result [12] | Kd (HER3 ECD-HRG complex [13]) [nM] | MR (Molar Ratio) (HER3 ECD-HRG complex [13]) | koff (HER3 ECD-HRG complex [13]) [s⁻¹] | kon (HER3 ECD-HRG complex [13]) [M⁻¹ s⁻¹] | further results
M-15-02 (antibody, V domains shown, murine hybridoma clone) VH: QVQLQQSGAELAKPGASVKMSCKTSGYTLTDYWIHWVKQRPGQGLEWIGYINPYTGYTESNQKFKDKATLTADKSSNTAYIQLSSLTSEDSAVYYCARPYYYGDYWGQGTTLTVSS VL: QIVLTQSPAIMSASPGERVTITCSASSSVSYMHWFQQKPGTSPKLLIYSTSNLASGVPARFSGSGSGTSYSLTISRMEAEDAATYYCQQRSSYPFTFGSGTKLEIK | no binding | no binding | 0.025 | 1.78 | 3.15 | 1.52 | 1.98 | 0.024 | 0.04 | 3.19 | 0.04 | 1.76 | no binding | no binding | no binding (tested: 1 µg/ml) | no binding (tested: 1 µg/ml) |  |  |  |  | 
DIB-MoAb (monovalent antibody based on M-05-74) (antibody, V domains shown, also called DIB-74 in the monovalent MoAb format; monovalent M-05-74) VH: QVQLQQSGAELAKPGASVKMSCKTSGYTLTDYWIHWVKQRPGQGLEWIGYINPYTGYTESNQKFKDKATLTADKSSNTAYIQLSSLTSEDSAVYYCARPYYYGDYWGQGTTLTVSS VL: QIVLTQSPAIMSASPGERVTITCSASSSVSYMHWFQQKPGTSPKLLIYSTSNLASGVPARFSGSGSGTSYSLTISRMEAEDAATYYCQQRSSYPFTFGSGTKLEIK |  |  |  |  |  |  |  |  |  |  |  |  |  |  |  |  | 2.1 | 0.6 | 0.00023 | 110000 | t1/2-diss (HER3 ECD-HRG complex [13]): 51 min
M-15-04 (antibody, V domains shown, murine hybridoma clone) VH: QVQLQQSGAELAKPGASVKMSCKTSGYTLTDYWIHWVKQRPGQGLEWIGYINPYTGYTESNQKFKDKATLTADKSSNTAYIQLSSLTSEDSAVYYCARPYYYGDYWGQGTTLTVSS VL: QIVLTQSPAIMSASPGERVTITCSASSSVSYMHWFQQKPGTSPKLLIYSTSNLASGVPARFSGSGSGTSYSLTISRMEAEDAATYYCQQRSSYPFTFGSGTKLEIK | no binding | no binding | 0.064 | 1.5 | 3.17 | 1.46 | 1.83 | 0.067 | 0.033 | 3.19 | 0.04 | 1.85 | no binding | no binding | no binding (tested: 1 µg/ml) | no binding (tested: 1 µg/ml) |  |  |  |  | 
bispecific HER3/HER2 antibody DIBxPERT (bispecific antibody, human IgG1, kappa, also called DIBxPERT CrossMab) heavy 1: not shown light 1: DIQMTQSPSSLSASVGDRVTITCKASQDVSIGVAWYQQKPGKAPKLLIYSASYRYTGVPSRFSGSGSGTDFTLTISSLQPEDFATYYCQQYYIYPYTFGQGTKVEIKSSASTKGPSVFPLAPSSKSTSGGTAALGCLVKDYFPEPVTVSWNSGALTSGVHTFPAVLQSSGLYSLSSVVTVPSSSLGTQTYICNVNHKPSNTKVDKKVEPKSC heavy 2: not shown light 2: QIVLTQSPAIMSASPGERVTITCSASSSVSYMHWFQQKPGTSPKLLIYSTSNLASGVPARFSGSGSGTSYSLTISRMEAEDAATYYCQQRSSYPFTFGSGTKLEIKRTVAAPSVFIFPPSDEQLKSGTASVVCLLNNFYPREAKVQWKVDNALQSGNSQESVTEQDSKDSTYSLSSTLTLSKADYEKHKVYACEVTHQGLSSPVTKSFNRGEC |  |  |  |  |  |  |  |  |  |  |  |  |  |  |  |  | 3.9 | 0.5 | 0.00033 | 84000 | MR (molar ratio), second injection (HER3 ECD-HRG complex [14]): 0.7; t1/2-diss (HER3 ECD-HRG complex [13]): 35 min; MR (molar ratio), first injection (HER3 ECD-HRG complex [15]): 0.8
